Biological target: GST-labeled ROR1 (intracellular domain), recombinant, purified from Sf9 insect cells (UniProt Q01973)
Sequence (Q01973 428-937): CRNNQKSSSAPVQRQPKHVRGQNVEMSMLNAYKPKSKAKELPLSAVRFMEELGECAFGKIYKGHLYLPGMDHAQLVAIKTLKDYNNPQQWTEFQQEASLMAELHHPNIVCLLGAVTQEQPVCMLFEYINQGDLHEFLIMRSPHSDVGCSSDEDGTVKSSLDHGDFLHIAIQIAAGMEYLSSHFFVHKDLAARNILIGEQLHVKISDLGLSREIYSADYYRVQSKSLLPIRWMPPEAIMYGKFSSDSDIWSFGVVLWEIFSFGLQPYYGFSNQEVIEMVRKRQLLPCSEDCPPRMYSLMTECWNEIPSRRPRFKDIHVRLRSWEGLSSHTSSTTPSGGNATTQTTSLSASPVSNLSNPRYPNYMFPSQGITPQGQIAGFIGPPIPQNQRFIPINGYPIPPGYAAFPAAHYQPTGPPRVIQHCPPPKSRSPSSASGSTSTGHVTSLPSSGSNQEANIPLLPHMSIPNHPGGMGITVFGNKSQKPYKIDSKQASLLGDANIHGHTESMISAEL

## endogenous c-Src (NCI-H1975, 293T, NCI-H23 cells)
  in vitro ROR1 kinase assay, western blot with anti-phospho-c-Src antibody (c-Src immunoprecipitated from NCI-H23 and 293T lysates as substrate): c-Src was phosphorylated by ROR1

From patent publication US20130338214
